± gives the standard deviation of the averaged measurements.
B1: library; a variant is named by its letters at N, in order (parent)
chain: GCUGUCACCGGUGCUUGGUACGUUAUAUUCAGCCGGUCUGAUGAGUCUNNNNNNAGACGAAACAGC

Tests used:
(6R,S)-folinic acid [1] = variants of: B1; assay: normalized RNA/DNA level without ligand (relative to sTRSVctl = 100) (log10 (% of sTRSVctl)); HEK293T overexpressing SLC46A1; higher = less ribozyme self-cleavage, higher mRNA level; details: without (6R,S)-folinic acid; ligand present: no
Outline: (§1)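 Total RNA, extracted with EDTA 72 h after HEK293T cells were transfected with 4 µg per 6-well well of reporter-linked ribozyme switch library plasmids, was reverse-transcribed, amplified, barcoded and sequenced. Ligand, if used, was added 1 h before transfection. RNA level was derived from RNA reads divided by DNA reads and normalized to a spiked-in non-cleaving sequence or to the top sequences. This was multiplied by 100 and log10-transformed, with the top set of 25 sequences and a ≥100 DNA read minimum.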

(6R,S)-folinic acid [2] = variants of: B1; assay: normalized RNA/DNA level with ligand (relative to sTRSVctl = 100) (log10 (% of sTRSVctl)); HEK293T overexpressing SLC46A1; ligand concentration (+) RNA-Seq: 6 mM; higher = less ribozyme self-cleavage, higher mRNA level; details: with (6R,S)-folinic acid; ligand present: yes
Outline: as §1

| Variant | normalized RNA/DNA level without ligand (log10) ((6R,S)-folinic acid [1]) | normalized RNA/DNA level with ligand (log10) ((6R,S)-folinic acid [2]) |
| --- | --- | --- |
| GCUGUCACCGGUGCUUGGUACGUUAUAUUCAGCCGGUCUGAUGAGUCUGUACGCAGACGAAACAGC | 2.01 ± 0.029 | 2.03 ± 0.026 |
| GCUGUCACCGGUGCUUGGUACGUUAUAUUCAGCCGGUCUGAUGAGUCUCUACAAAGACGAAACAGC | 1.98 ± 0.0052 | 1.99 ± 0.024 |
| GCUGUCACCGGUGCUUGGUACGUUAUAUUCAGCCGGUCUGAUGAGUCUCUACACAGACGAAACAGC | 2.05 ± 0.011 | 2.023 ± 0.016 |
| GCUGUCACCGGUGCUUGGUACGUUAUAUUCAGCCGGUCUGAUGAGUCUCUACAUAGACGAAACAGC | 1.974 ± 0.0066 | 2.02 ± 0.039 |
| GCUGUCACCGGUGCUUGGUACGUUAUAUUCAGCCGGUCUGAUGAGUCUCUACAGAGACGAAACAGC | 1.977 ± 0.011 | 2.03 ± 0.029 |
| GCUGUCACCGGUGCUUGGUACGUUAUAUUCAGCCGGUCUGAUGAGUCUCUACGAAGACGAAACAGC | 2.045 ± 0.012 | 2.05 ± 0.028 |
| GCUGUCACCGGUGCUUGGUACGUUAUAUUCAGCCGGUCUGAUGAGUCUCUACGCAGACGAAACAGC | 2.025 ± 0.013 | 2.028 ± 0.0021 |
| GCUGUCACCGGUGCUUGGUACGUUAUAUUCAGCCGGUCUGAUGAGUCUAUACGAAGACGAAACAGC | 1.9851 ± 0.0003 | 2.01 ± 0.043 |
| GCUGUCACCGGUGCUUGGUACGUUAUAUUCAGCCGGUCUGAUGAGUCUGUACAAAGACGAAACAGC | 1.966 ± 0.013 | 1.986 ± 0.011 |
| GCUGUCACCGGUGCUUGGUACGUUAUAUUCAGCCGGUCUGAUGAGUCUGUACAUAGACGAAACAGC | 1.965 ± 0.005 | 2.01 ± 0.034 |
| GCUGUCACCGGUGCUUGGUACGUUAUAUUCAGCCGGUCUGAUGAGUCUUUACACAGACGAAACAGC | 2.003 ± 0.0021 | 1.99 ± 0.038 |
| GCUGUCACCGGUGCUUGGUACGUUAUAUUCAGCCGGUCUGAUGAGUCUUUACAGAGACGAAACAGC | 1.898 ± 0.017 | 1.99 ± 0.027 |
| GCUGUCACCGGUGCUUGGUACGUUAUAUUCAGCCGGUCUGAUGAGUCUUUACAAAGACGAAACAGC | 1.963 ± 0.0022 | 2.01 ± 0.028 |
| GCUGUCACCGGUGCUUGGUACGUUAUAUUCAGCCGGUCUGAUGAGUCUUUACAUAGACGAAACAGC | 1.96 ± 0.025 | 1.98 ± 0.028 |
| GCUGUCACCGGUGCUUGGUACGUUAUAUUCAGCCGGUCUGAUGAGUCUCUACCGAGACGAAACAGC | 2.06 ± 0.029 | 2.05 ± 0.025 |
| GCUGUCACCGGUGCUUGGUACGUUAUAUUCAGCCGGUCUGAUGAGUCUCUACCCAGACGAAACAGC | 2.045 ± 0.011 | 2 ± 0.047 |
| GCUGUCACCGGUGCUUGGUACGUUAUAUUCAGCCGGUCUGAUGAGUCUCUACCAAGACGAAACAGC | 2.0575 ± 0.0015 | 2.0336 ± 0.0013 |
| GCUGUCACCGGUGCUUGGUACGUUAUAUUCAGCCGGUCUGAUGAGUCUCUACCUAGACGAAACAGC | 2.044 ± 0.02 | 2.01 ± 0.026 |
| GCUGUCACCGGUGCUUGGUACGUUAUAUUCAGCCGGUCUGAUGAGUCUAUACCGAGACGAAACAGC | 2.013 ± 0.013 | 2.04 ± 0.042 |
| GCUGUCACCGGUGCUUGGUACGUUAUAUUCAGCCGGUCUGAUGAGUCUAUACCUAGACGAAACAGC | 2.0169 ± 0.00086 | 2.025 ± 0.011 |
| GCUGUCACCGGUGCUUGGUACGUUAUAUUCAGCCGGUCUGAUGAGUCUAUACCCAGACGAAACAGC | 2.023 ± 0.003 | 2.01 ± 0.023 |

| Variant | normalized RNA/DNA level without ligand (log10) ((6R,S)-folinic acid [1]) | normalized RNA/DNA level with ligand (log10) ((6R,S)-folinic acid [2]) |
| --- | --- | --- |
| GCUGUCACCGGUGCUUGGUACGUUAUAUUCAGCCGGUCUGAUGAGUCUAUACACAGACGAAACAGC | 2.01 ± 0.026 | 2.04 ± 0.039 |
| GCUGUCACCGGUGCUUGGUACGUUAUAUUCAGCCGGUCUGAUGAGUCUGUAAUUAGACGAAACAGC | 2.013 ± 0.0027 | 1.99 ± 0.024 |
| GCUGUCACCGGUGCUUGGUACGUUAUAUUCAGCCGGUCUGAUGAGUCUUUAAGUAGACGAAACAGC | 1.996 ± 0.014 | 2.024 ± 0.0034 |
| GCUGUCACCGGUGCUUGGUACGUUAUAUUCAGCCGGUCUGAUGAGUCUUUAAUCAGACGAAACAGC | 2.0392 ± 0.0017 | 2.03 ± 0.034 |
| GCUGUCACCGGUGCUUGGUACGUUAUAUUCAGCCGGUCUGAUGAGUCUUUAAUUAGACGAAACAGC | 2.011 ± 0.0048 | 2.01 ± 0.042 |
| GCUGUCACCGGUGCUUGGUACGUUAUAUUCAGCCGGUCUGAUGAGUCUUUACCUAGACGAAACAGC | 2.061 ± 0.0025 | 2.05 ± 0.04 |
| GCUGUCACCGGUGCUUGGUACGUUAUAUUCAGCCGGUCUGAUGAGUCUUUACCGAGACGAAACAGC | 1.969 ± 0.0046 | 2 ± 0.04 |
| GCUGUCACCGGUGCUUGGUACGUUAUAUUCAGCCGGUCUGAUGAGUCUUUACCAAGACGAAACAGC | 2.03 ± 0.0034 | 2.028 ± 0.016 |
| GCUGUCACCGGUGCUUGGUACGUUAUAUUCAGCCGGUCUGAUGAGUCUUUACGCAGACGAAACAGC | 1.995 ± 0.011 | 1.995 ± 0.018 |
| GCUGUCACCGGUGCUUGGUACGUUAUAUUCAGCCGGUCUGAUGAGUCUUUACGAAGACGAAACAGC | 2.013 ± 0.011 | 2.04 ± 0.035 |
| GCUGUCACCGGUGCUUGGUACGUUAUAUUCAGCCGGUCUGAUGAGUCUCUAAUGAGACGAAACAGC | 2.026 ± 0.013 | 2.02 ± 0.038 |
| GCUGUCACCGGUGCUUGGUACGUUAUAUUCAGCCGGUCUGAUGAGUCUCUAAUCAGACGAAACAGC | 2.072 ± 0.014 | 2.007 ± 0.013 |
| GCUGUCACCGGUGCUUGGUACGUUAUAUUCAGCCGGUCUGAUGAGUCUCUAAUUAGACGAAACAGC | 2.011 ± 0.01 | 2.02 ± 0.061 |
| GCUGUCACCGGUGCUUGGUACGUUAUAUUCAGCCGGUCUGAUGAGUCUAUAAUUAGACGAAACAGC | 1.99 ± 0.025 | 2.03 ± 0.038 |
| GCUGUCACCGGUGCUUGGUACGUUAUAUUCAGCCGGUCUGAUGAGUCUAUAAUCAGACGAAACAGC | 2.024 ± 0.015 | 2 ± 0.032 |
| GCUGUCACCGGUGCUUGGUACGUUAUAUUCAGCCGGUCUGAUGAGUCUAUAAUGAGACGAAACAGC | 1.91 ± 0.021 | 2 ± 0.043 |
| GCUGUCACCGGUGCUUGGUACGUUAUAUUCAGCCGGUCUGAUGAGUCUGUACCCAGACGAAACAGC | 2.02 ± 0.03 | 2.03 ± 0.06 |
| GCUGUCACCGGUGCUUGGUACGUUAUAUUCAGCCGGUCUGAUGAGUCUGUACCGAGACGAAACAGC | 2.088 ± 0.0044 | 2.06 ± 0.014 |
| GCUGUCACCGGUGCUUGGUACGUUAUAUUCAGCCGGUCUGAUGAGUCUGUACCUAGACGAAACAGC | 2.086 ± 0.0075 | 2.06 ± 0.051 |
| GCUGUCACCGGUGCUUGGUACGUUAUAUUCAGCCGGUCUGAUGAGUCUGUACCAAGACGAAACAGC | 2.0976 ± 0.0018 | 2.038 ± 0.013 |

Source: the supplement of paper PMC6757056
